Data taken from PMC7018998.

Key:
ErbB2 [1] = target: ErbB2 (UniProt P04626); experiment: two-colour single molecule co-localisation and tracking (TOCCSL, TIR microscopy); live CHO-ErbB2-ErbB3 cells; AF488-ErbB3-Fab and AF647-ErbB3-Fab for homodimers, AF488-ErbB2-Fab and AF647-ErbB3-Fab for heterodimers; with 200 ng/mL (25 nM) HRG, no pertuzumab; room temperature; settings: other: two-colour single molecule co-localisation and tracking (TOCCSL, TIR microscopy)
ErbB2 [2] = target: ErbB2 (UniProt P04626); experiment: two-colour single molecule co-localisation and tracking (TOCCSL, TIR microscopy); live CHO-ErbB2-ErbB3 cells; AF488-ErbB3-Fab and AF647-ErbB3-Fab for homodimers, AF488-ErbB2-Fab and AF647-ErbB3-Fab for heterodimers; no HRG, no pertuzumab; room temperature; settings: other: two-colour single molecule co-localisation and tracking (TOCCSL, TIR microscopy)

Sequence of ErbB3 (chain): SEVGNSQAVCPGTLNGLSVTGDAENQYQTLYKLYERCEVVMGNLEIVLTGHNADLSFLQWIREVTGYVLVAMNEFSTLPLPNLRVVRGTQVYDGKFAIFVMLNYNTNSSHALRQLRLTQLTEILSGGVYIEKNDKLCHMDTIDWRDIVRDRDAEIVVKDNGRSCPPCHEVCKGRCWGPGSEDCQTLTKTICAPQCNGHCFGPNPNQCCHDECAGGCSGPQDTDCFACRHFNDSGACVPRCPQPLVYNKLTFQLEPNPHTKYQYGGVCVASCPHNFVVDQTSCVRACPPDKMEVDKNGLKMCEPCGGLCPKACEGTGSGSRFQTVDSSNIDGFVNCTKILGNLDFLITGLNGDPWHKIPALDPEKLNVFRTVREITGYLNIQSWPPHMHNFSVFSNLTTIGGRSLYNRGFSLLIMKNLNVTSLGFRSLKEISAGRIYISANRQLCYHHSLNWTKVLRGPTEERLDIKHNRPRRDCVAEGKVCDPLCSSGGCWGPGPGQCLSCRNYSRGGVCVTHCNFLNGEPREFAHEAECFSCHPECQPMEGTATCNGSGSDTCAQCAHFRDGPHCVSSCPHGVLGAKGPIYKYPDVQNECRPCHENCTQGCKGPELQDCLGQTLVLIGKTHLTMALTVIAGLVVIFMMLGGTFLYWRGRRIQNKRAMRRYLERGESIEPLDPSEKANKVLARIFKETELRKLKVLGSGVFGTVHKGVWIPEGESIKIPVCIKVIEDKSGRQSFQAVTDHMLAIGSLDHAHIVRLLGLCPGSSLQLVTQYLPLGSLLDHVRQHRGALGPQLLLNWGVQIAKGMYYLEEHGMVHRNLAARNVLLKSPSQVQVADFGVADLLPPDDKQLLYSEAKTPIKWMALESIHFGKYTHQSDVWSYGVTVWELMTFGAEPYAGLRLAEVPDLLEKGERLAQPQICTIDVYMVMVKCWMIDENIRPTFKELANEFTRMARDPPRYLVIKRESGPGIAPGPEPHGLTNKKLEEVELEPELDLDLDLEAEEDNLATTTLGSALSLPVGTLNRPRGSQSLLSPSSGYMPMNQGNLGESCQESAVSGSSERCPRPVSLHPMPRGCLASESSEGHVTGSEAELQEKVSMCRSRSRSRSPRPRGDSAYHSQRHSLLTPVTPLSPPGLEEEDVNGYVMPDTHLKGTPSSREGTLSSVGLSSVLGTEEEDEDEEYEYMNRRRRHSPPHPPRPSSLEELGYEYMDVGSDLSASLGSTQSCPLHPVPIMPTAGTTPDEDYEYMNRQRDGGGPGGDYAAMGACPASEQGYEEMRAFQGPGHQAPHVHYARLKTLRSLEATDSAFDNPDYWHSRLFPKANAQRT

ErbB3 was tested, and the “percent of ErbB3 in ErbB3/ErbB2 heterodimers” value (ErbB2 [1]) was “a further increase of ErbB3/ErbB2 heterodimerization (∼90%” and the “percent of ErbB3 in ErbB3/ErbB2 heterodimers” value (ErbB2 [2]) was “∼70% of ErbB3 being associated to ErbB3/ErbB2 heterodimers”.
